Experimental data published in patent CN109776679A.

Molecular target: T1, 丝氨酸蛋白酶抑制因子SPINK1的第10-19个氨基酸片段 (synthetic SPINK1 peptide, aa 10-19)
T1 sequence (peptide): SALALLSLSG
Assay: antibody titer; method and coated antigen not stated there, taken to be ELISA on the coated immunogen peptide

抗体最低作用浓度: 0.0825 µg/mL | 效价 (dilution factor (1:x)): 4000
B1: 单克隆抗体KZN2 (monoclonal antibody against SPINK1 produced by hybridoma CGMCC No.15800) (antibody, V domains shown)
VH: QVQLQQSGGGLVQPGGAMKLSCTASGFTFSDAWMYWVRQSPEKGLEWVAEIRNKAYNHATYYAESVKGRFTISGDDSKSSVYLQMNSLRAEDTGIYYCTTYDYWGQGTTVTVSS
VL: DIVMTQSPLSLPVSLGDQASISCRSSQSLVHGDGNTYLHWYLQKPGQSPNLLIYKISNRFSGVPDRFSGSGSGTDFTLKISRVEAEDLGVYFCSQNTHVPRTFGGGTKLEIK
